The values that follow come from patent US20230365641.

Values joined by “and” are separate entries in the source; they are usually repeats but may differ in a detail not shown here. Equal entries are not always repeated.

TC46, sequence (chain, as listed by the source, chain 1 of 3, other chains not shown): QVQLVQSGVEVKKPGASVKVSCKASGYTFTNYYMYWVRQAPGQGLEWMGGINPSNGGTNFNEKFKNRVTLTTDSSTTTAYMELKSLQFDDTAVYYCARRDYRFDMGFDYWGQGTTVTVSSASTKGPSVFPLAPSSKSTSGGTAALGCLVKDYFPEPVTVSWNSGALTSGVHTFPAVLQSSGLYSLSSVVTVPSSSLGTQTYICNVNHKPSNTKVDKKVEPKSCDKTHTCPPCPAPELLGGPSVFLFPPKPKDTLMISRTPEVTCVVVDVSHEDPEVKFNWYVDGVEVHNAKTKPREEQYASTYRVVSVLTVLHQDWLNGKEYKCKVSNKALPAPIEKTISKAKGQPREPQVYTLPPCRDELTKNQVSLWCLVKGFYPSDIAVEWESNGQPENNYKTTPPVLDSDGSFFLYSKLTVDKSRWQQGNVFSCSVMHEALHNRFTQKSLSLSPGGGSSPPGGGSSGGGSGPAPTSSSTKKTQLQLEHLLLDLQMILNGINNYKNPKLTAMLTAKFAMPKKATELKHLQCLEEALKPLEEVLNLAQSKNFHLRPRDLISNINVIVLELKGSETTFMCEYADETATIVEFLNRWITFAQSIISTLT
TC46, sequence (chain, as listed by the source, chain 2 of 3, other chains not shown): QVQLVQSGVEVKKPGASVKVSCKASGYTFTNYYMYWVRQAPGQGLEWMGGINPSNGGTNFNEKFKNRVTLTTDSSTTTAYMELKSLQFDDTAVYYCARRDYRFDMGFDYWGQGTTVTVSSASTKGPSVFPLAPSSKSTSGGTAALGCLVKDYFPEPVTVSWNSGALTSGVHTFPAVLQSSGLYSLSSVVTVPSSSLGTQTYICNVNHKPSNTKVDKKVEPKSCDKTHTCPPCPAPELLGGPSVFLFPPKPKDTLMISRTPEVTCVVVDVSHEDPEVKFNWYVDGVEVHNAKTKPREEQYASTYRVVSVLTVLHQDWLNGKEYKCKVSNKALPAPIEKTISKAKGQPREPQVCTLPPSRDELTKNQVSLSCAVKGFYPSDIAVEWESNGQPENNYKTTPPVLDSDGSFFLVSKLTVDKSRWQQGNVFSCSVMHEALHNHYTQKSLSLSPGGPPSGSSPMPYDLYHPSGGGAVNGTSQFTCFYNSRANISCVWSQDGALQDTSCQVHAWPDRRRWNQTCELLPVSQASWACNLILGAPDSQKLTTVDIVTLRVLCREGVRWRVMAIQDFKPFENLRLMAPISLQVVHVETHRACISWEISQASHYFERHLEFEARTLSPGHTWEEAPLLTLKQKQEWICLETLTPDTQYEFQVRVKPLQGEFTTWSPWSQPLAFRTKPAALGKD
TC47, sequence (chain, as listed by the source, chain 1 of 3, other chains not shown): as the sequence (chain, as listed by the source, chain 1 of 3, other chains not shown) above
TC47, sequence (chain, as listed by the source, chain 2 of 3, other chains not shown): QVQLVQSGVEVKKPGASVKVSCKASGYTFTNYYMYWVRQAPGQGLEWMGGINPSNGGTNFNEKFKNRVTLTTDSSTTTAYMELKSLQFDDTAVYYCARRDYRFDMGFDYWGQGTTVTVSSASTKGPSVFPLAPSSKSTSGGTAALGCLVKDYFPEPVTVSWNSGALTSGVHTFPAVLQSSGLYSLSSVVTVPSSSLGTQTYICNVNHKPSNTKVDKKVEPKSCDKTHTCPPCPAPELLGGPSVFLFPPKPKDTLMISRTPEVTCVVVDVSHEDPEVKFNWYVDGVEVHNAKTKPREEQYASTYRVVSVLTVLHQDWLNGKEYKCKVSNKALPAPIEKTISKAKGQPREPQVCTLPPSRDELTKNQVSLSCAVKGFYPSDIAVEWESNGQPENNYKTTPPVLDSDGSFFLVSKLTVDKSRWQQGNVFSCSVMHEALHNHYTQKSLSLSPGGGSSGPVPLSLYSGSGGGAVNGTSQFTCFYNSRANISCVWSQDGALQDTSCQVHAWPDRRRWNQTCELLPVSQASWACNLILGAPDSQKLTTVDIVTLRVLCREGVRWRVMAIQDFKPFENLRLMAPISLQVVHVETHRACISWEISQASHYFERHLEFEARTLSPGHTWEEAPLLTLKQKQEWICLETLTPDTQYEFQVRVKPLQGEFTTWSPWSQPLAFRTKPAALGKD
TC3, sequence (chain, as listed by the source, chain 1 of 3, other chains not shown): as the sequence (chain, as listed by the source, chain 1 of 3, other chains not shown) above
TC3, sequence (chain, as listed by the source, chain 2 of 3, other chains not shown): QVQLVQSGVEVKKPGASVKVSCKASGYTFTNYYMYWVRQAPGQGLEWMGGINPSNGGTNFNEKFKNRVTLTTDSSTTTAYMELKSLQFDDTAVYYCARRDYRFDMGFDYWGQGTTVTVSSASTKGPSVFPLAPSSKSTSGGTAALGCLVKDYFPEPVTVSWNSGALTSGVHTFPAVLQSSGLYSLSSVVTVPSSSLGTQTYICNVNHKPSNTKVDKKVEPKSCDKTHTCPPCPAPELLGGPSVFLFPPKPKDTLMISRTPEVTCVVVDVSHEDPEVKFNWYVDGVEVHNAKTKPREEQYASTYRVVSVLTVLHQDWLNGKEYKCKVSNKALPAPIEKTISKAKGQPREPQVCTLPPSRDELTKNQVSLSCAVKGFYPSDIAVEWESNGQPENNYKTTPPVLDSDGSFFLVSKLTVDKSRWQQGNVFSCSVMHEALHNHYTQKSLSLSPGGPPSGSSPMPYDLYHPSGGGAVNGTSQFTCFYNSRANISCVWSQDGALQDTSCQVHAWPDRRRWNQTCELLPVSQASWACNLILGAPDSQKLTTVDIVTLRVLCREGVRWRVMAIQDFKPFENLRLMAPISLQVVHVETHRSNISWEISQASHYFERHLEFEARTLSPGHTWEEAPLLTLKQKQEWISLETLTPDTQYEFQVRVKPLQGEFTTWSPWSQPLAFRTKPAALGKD
TC24, sequence (chain, as listed by the source, chain 1 of 3, other chains not shown): as the sequence (chain, as listed by the source, chain 1 of 3, other chains not shown) above
TC24, sequence (chain, as listed by the source, chain 2 of 3, other chains not shown): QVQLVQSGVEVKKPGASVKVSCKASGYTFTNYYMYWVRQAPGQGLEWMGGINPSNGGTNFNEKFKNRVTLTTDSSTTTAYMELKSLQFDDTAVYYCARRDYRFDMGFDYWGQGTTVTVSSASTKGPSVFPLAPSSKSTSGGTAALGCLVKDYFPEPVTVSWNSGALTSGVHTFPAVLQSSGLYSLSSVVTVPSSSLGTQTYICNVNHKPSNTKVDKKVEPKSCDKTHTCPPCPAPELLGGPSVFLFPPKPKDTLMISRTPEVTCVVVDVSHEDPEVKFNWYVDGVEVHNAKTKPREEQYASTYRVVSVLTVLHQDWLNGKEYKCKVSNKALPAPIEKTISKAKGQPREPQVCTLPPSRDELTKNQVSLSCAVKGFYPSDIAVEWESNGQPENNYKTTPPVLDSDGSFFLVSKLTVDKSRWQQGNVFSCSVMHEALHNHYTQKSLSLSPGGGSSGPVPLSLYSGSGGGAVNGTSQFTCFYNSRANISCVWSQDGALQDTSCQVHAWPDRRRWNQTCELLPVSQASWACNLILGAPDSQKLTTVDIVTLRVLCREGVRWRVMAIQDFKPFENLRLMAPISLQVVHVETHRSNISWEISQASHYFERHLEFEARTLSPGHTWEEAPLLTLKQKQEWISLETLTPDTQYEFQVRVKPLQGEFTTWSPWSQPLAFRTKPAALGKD

B1: recombinant human MMP-2 (protein)
chain: YNFFPRKPKWDKNQITYRIIGYTPDLDPETVDDAFARAFQVWSDVTPLRFSRIHDGEADIMINFGRWEHGDGYPFDGKDGLLAHAFAPGTGVGGDSHFDDDELWTLGEGQVVRVKYGNADGEYCKFPFLFNGKEYNSCTDTGRSDGFLWCSTTYNFEKDGKYGFCPHEALFTMGGNAEGQPCKFPFRFQGTSYDSCTTEGRTDGYRWCGTTEDYDRDKKYGFCPETAMSTVGGNSEGAPCVFPFTFLGNKYESCTSAGRSDGKMWCATTANYDDDRKWGFCPDQGYSLFLVAAHEFGHAMGLEHSQDPGALMAPIYTYTKNFRLSQDDIKGIQELYGASPDIDLGTGPTPTLGPVTPEICKQDIVFDGIAQIRGEIFFFKDRFIWRTVTPRDKPMGPLLVATFWPELPEKIDAVYEAPQEEKAVFFAGNEYWIYSASTLERGYPKPLTSLGLPPDVQRVDAAFNWSKNKKTYIFAGDKFWRYNEVKKKMDPGFPKLIADAWNAIPDNLDAVVDLQGGGHSYFFKGAYYLKLENQSLKSVKFGSIKSDWLGC
Turning to B1, the Est. kcat/KM was 130000 M⁻¹ s⁻¹ and 140000 M⁻¹ s⁻¹ with TC71; 9600 M⁻¹ s⁻¹ and 9800 M⁻¹ s⁻¹ with TC74; 3800 M⁻¹ s⁻¹ with TC68; 43000 M⁻¹ s⁻¹ and 41000 M⁻¹ s⁻¹ with TC73; 51000 M⁻¹ s⁻¹ and 50000 M⁻¹ s⁻¹ with TC69; 4000 M⁻¹ s⁻¹ and 4400 M⁻¹ s⁻¹ with TC57. Further, the Est. kcat/KM with TC53 was 4900 M⁻¹ s⁻¹ and 4700 M⁻¹ s⁻¹; with TC70, 11000 M⁻¹ s⁻¹; with TC75, 120000 M⁻¹ s⁻¹ and 110000 M⁻¹ s⁻¹.

B2: recombinant human MMP-7 (protein)
chain: YSLFPNSPKWTSKVVTYRIVSYTRDLPHITVDRLVSKALNMWGKEIPLHFRKVVWGTADIMIGFARGAHGDSYPFDGPGNTLAHAFAPGTGLGGDAHFDEDERWTDGSSLGINFLYAATHELGHSLGMGHSSDPNAVMYPTYGNGDPQNFKLSQDDIKGIQKLYGKRSNSRKK
With B2, the Est. kcat/KM with TC71 is 19000 M⁻¹ s⁻¹ and 22000 M⁻¹ s⁻¹; with TC47 it was 130000 M⁻¹ s⁻¹; with TC68 it was 13000 M⁻¹ s⁻¹; with TC73 it was 71000 M⁻¹ s⁻¹ and 67000 M⁻¹ s⁻¹; in the data set with TC69 it was 78000 M⁻¹ s⁻¹; in the data set with TC3 it was 13000 M⁻¹ s⁻¹. Further, the Est. kcat/KM with TC57 is 13000 M⁻¹ s⁻¹ and 15000 M⁻¹ s⁻¹; with TC46, 13000 M⁻¹ s⁻¹; with TC53, 24000 M⁻¹ s⁻¹ and 23000 M⁻¹ s⁻¹; with TC24 it was 140000 M⁻¹ s⁻¹; with TC75 it was 18000 M⁻¹ s⁻¹ and 19000 M⁻¹ s⁻¹.
